Test system: Escherichia coli TOP10
Assay: shrunken log2 fold change of peptide-encoding DNA abundance (4.5 h post-induction vs induction); higher = less antimicrobial activity (less host growth inhibition)
Conditions: time post-induction: 4.5 h; library: site-saturation at positions 5, 18, 19, 20
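Further: peptides expressed intracellularly from a pBAD plasmid library in pooled LB shake-flask culture, induced with 0.3% L-arabinose, DNA abundance read by NGS, three biological replicates, DESeq2 with apeglm shrinkage.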

## RRIRYRPPRLPRPRPRPVIFPRP
  shrunken log2 fold change: -0.331

## RRIRIRPPRLPRPRPRPDKNPRP
  shrunken log2 fold change: -0.673

## RRIRLRPPRLPRPRPRPTNTPRP
  shrunken log2 fold change: -0.375

## RRIRQRPPRLPRPRPRPVMTPRP
  shrunken log2 fold change: -0.172

## RRIRLRPPRLPRPRPRPQNAPRP
  shrunken log2 fold change: 0.223

## RRIRARPPRLPRPRPRPKPHPRP
  shrunken log2 fold change: 0.579

## RRIRQRPPRLPRPRPRPKIRPRP
  shrunken log2 fold change: 0.00599

## RRIRHRPPRLPRPRPRPCGVPRP
  shrunken log2 fold change: -0.00991

## RRIRWRPPRLPRPRPRPIMGPRP
  shrunken log2 fold change: 0.0656

## RRIRTRPPRLPRPRPRPDADPRP
  shrunken log2 fold change: 0.0357

## RRIRGRPPRLPRPRPRPFRHPRP
  shrunken log2 fold change: 0.0102

## RRIRQRPPRLPRPRPRPIMQPRP
  shrunken log2 fold change: -0.0377

## RRIRFRPPRLPRPRPRPHFSPRP
  shrunken log2 fold change: -0.24

## RRIRGRPPRLPRPRPRPVWGPRP
  shrunken log2 fold change: 1.08

## RRIRIRPPRLPRPRPRPVTLPRP
  shrunken log2 fold change: -0.093

## RRIRCRPPRLPRPRPRPTRYPRP
  shrunken log2 fold change: -0.0935

## RRIRCRPPRLPRPRPRPEWFPRP
  shrunken log2 fold change: 0.000144

## RRIRARPPRLPRPRPRPSKKPRP
  shrunken log2 fold change: 0.23

## RRIRTRPPRLPRPRPRPPPCPRP
  shrunken log2 fold change: 0.292

## RRIRNRPPRLPRPRPRPQYYPRP
  shrunken log2 fold change: -0.128

## RRIRQRPPRLPRPRPRPTKIPRP
  shrunken log2 fold change: -0.13

## RRIRVRPPRLPRPRPRPMRSPRP
  shrunken log2 fold change: 0.604

## RRIRTRPPRLPRPRPRPTDWPRP
  shrunken log2 fold change: 0.218

## RRIRWRPPRLPRPRPRPDIGPRP
  shrunken log2 fold change: -0.0157

## RRIRDRPPRLPRPRPRPDLFPRP
  shrunken log2 fold change: 0.0296

## RRIRWRPPRLPRPRPRPYGQPRP
  shrunken log2 fold change: 0.051

## RRIRQRPPRLPRPRPRPFVRPRP
  shrunken log2 fold change: -0.0842

## RRIRGRPPRLPRPRPRPVFPPRP
  shrunken log2 fold change: 0.36

## RRIRKRPPRLPRPRPRPKKLPRP
  shrunken log2 fold change: 0.16

## RRIRMRPPRLPRPRPRPWNSPRP
  shrunken log2 fold change: -0.00149

## RRIRNRPPRLPRPRPRPMSIPRP
  shrunken log2 fold change: 0.00262

## RRIRWRPPRLPRPRPRPRRDPRP
  shrunken log2 fold change: 0.243

## RRIRVRPPRLPRPRPRPWDQPRP
  shrunken log2 fold change: -0.00149

## RRIRWRPPRLPRPRPRPHWIPRP
  shrunken log2 fold change: -0.434

## RRIRTRPPRLPRPRPRPFSYPRP
  shrunken log2 fold change: -0.0874

## RRIRNRPPRLPRPRPRPEKWPRP
  shrunken log2 fold change: -0.0101

## RRIRPRPPRLPRPRPRPLKMPRP
  shrunken log2 fold change: -0.124

## RRIRIRPPRLPRPRPRPKCYPRP
  shrunken log2 fold change: -0.00654

## RRIRCRPPRLPRPRPRPQMNPRP
  shrunken log2 fold change: -0.416

## RRIRHRPPRLPRPRPRPNIHPRP
  shrunken log2 fold change: -0.364

## RRIRDRPPRLPRPRPRPNATPRP
  shrunken log2 fold change: 0.0821

## RRIRTRPPRLPRPRPRPIGSPRP
  shrunken log2 fold change: 0.0344

## RRIRDRPPRLPRPRPRPQHFPRP
  shrunken log2 fold change: -0.422

## RRIRYRPPRLPRPRPRPWSAPRP
  shrunken log2 fold change: -0.237

## RRIRIRPPRLPRPRPRPCRDPRP
  shrunken log2 fold change: -0.132

## RRIRSRPPRLPRPRPRPHFGPRP
  shrunken log2 fold change: -0.195

## RRIRMRPPRLPRPRPRPRHVPRP
  shrunken log2 fold change: 0.437

## RRIRGRPPRLPRPRPRPEMYPRP
  shrunken log2 fold change: 0.837

## RRIRLRPPRLPRPRPRPGTRPRP
  shrunken log2 fold change: 0.309

## RRIRKRPPRLPRPRPRPSHTPRP
  shrunken log2 fold change: -0.0409

## RRIRTRPPRLPRPRPRPKQHPRP
  shrunken log2 fold change: 0.119

## RRIRYRPPRLPRPRPRPCGAPRP
  shrunken log2 fold change: -0.324

## RRIRWRPPRLPRPRPRPDYDPRP
  shrunken log2 fold change: -0.246

## RRIRVRPPRLPRPRPRPNVSPRP
  shrunken log2 fold change: -0.0331

## RRIRIRPPRLPRPRPRPQGSPRP
  shrunken log2 fold change: -0.0316

## RRIRERPPRLPRPRPRPKFTPRP
  shrunken log2 fold change: -0.147

## RRIRERPPRLPRPRPRPHEFPRP
  shrunken log2 fold change: -0.0591

## RRIRRRPPRLPRPRPRPAPGPRP
  shrunken log2 fold change: 0.812

## RRIRKRPPRLPRPRPRPLYQPRP
  shrunken log2 fold change: -0.187

## RRIRERPPRLPRPRPRPSLYPRP
  shrunken log2 fold change: -0.558

## RRIRLRPPRLPRPRPRPPWHPRP
  shrunken log2 fold change: 0.193

## RRIRFRPPRLPRPRPRPGYEPRP
  shrunken log2 fold change: -0.16

## RRIRARPPRLPRPRPRPCARPRP
  shrunken log2 fold change: 0.786

## RRIRMRPPRLPRPRPRPQWPPRP
  shrunken log2 fold change: -0.132

## RRIRRRPPRLPRPRPRPFDPPRP
  shrunken log2 fold change: 0.504

## RRIRYRPPRLPRPRPRPDFDPRP
  shrunken log2 fold change: -0.0161

## RRIRYRPPRLPRPRPRPNVDPRP
  shrunken log2 fold change: -1.26

## RRIRKRPPRLPRPRPRPFWSPRP
  shrunken log2 fold change: -0.00917

## RRIRTRPPRLPRPRPRPDFDPRP
  shrunken log2 fold change: -0.375

## RRIRWRPPRLPRPRPRPSWEPRP
  shrunken log2 fold change: -0.0924

## RRIRRRPPRLPRPRPRPFDTPRP
  shrunken log2 fold change: -0.154

## RRIRIRPPRLPRPRPRPSYQPRP
  shrunken log2 fold change: -1.32

## RRIRWRPPRLPRPRPRPTLPPRP
  shrunken log2 fold change: 0.128

## RRIRMRPPRLPRPRPRPDGHPRP
  shrunken log2 fold change: 0.0101

## RRIRWRPPRLPRPRPRPLEFPRP
  shrunken log2 fold change: 0.0696

## RRIRARPPRLPRPRPRPGYQPRP
  shrunken log2 fold change: 0.0478

## RRIRTRPPRLPRPRPRPYNAPRP
  shrunken log2 fold change: -1.3

## RRIRGRPPRLPRPRPRPYTDPRP
  shrunken log2 fold change: -0.417

## RRIRKRPPRLPRPRPRPYMLPRP
  shrunken log2 fold change: -0.579

## RRIRNRPPRLPRPRPRPNFNPRP
  shrunken log2 fold change: -0.734

## RRIRKRPPRLPRPRPRPRPWPRP
  shrunken log2 fold change: 0.947

## RRIRGRPPRLPRPRPRPHNYPRP
  shrunken log2 fold change: -0.248

## RRIRMRPPRLPRPRPRPEHVPRP
  shrunken log2 fold change: 0.0396

## RRIRSRPPRLPRPRPRPEIMPRP
  shrunken log2 fold change: 0.0625

## RRIRNRPPRLPRPRPRPPCLPRP
  shrunken log2 fold change: -0.236

## RRIRPRPPRLPRPRPRPGRFPRP
  shrunken log2 fold change: 0.434

## RRIRERPPRLPRPRPRPYFSPRP
  shrunken log2 fold change: -0.247

## RRIRRRPPRLPRPRPRPNCTPRP
  shrunken log2 fold change: 0.00402

## RRIRQRPPRLPRPRPRPQKMPRP
  shrunken log2 fold change: -0.00813

## RRIRKRPPRLPRPRPRPGCYPRP
  shrunken log2 fold change: 0.144

## RRIRVRPPRLPRPRPRPEYCPRP
  shrunken log2 fold change: -0.154

## RRIRKRPPRLPRPRPRPMGAPRP
  shrunken log2 fold change: 0.414

## RRIRYRPPRLPRPRPRPFVHPRP
  shrunken log2 fold change: -1.49

## RRIRVRPPRLPRPRPRPLRRPRP
  shrunken log2 fold change: 0.644

## RRIRMRPPRLPRPRPRPYFNPRP
  shrunken log2 fold change: -0.822

## RRIRDRPPRLPRPRPRPCESPRP
  shrunken log2 fold change: -0.00192

## RRIRKRPPRLPRPRPRPDLQPRP
  shrunken log2 fold change: 0.0789

## RRIRQRPPRLPRPRPRPILQPRP
  shrunken log2 fold change: 0.292

## RRIRYRPPRLPRPRPRPIRVPRP
  shrunken log2 fold change: -0.0013

## RRIRYRPPRLPRPRPRPGCQPRP
  shrunken log2 fold change: 0.0142

## RRIRDRPPRLPRPRPRPSMHPRP
  shrunken log2 fold change: -0.176

## RRIRERPPRLPRPRPRPDFCPRP
  shrunken log2 fold change: -0.196

## RRIRPRPPRLPRPRPRPYNYPRP
  shrunken log2 fold change: -0.446

## RRIRYRPPRLPRPRPRPETKPRP
  shrunken log2 fold change: -0.485

## RRIRMRPPRLPRPRPRPLSQPRP
  shrunken log2 fold change: 0.0295

## RRIRDRPPRLPRPRPRPEMFPRP
  shrunken log2 fold change: -0.0156

## RRIRERPPRLPRPRPRPKSSPRP
  shrunken log2 fold change: -0.0505

## RRIRVRPPRLPRPRPRPPAPPRP
  shrunken log2 fold change: 0.794

## RRIRCRPPRLPRPRPRPFEIPRP
  shrunken log2 fold change: -0.341

## RRIRYRPPRLPRPRPRPKAHPRP
  shrunken log2 fold change: -0.376

## RRIRSRPPRLPRPRPRPKRDPRP
  shrunken log2 fold change: 0.0509

## RRIRYRPPRLPRPRPRPNNHPRP
  shrunken log2 fold change: -1.1

## RRIRARPPRLPRPRPRPGHQPRP
  shrunken log2 fold change: 0.304

## RRIRVRPPRLPRPRPRPSHRPRP
  shrunken log2 fold change: -0.615

## RRIRTRPPRLPRPRPRPISYPRP
  shrunken log2 fold change: 0.061

## RRIRERPPRLPRPRPRPYHMPRP
  shrunken log2 fold change: -0.021

## RRIRTRPPRLPRPRPRPSRDPRP
  shrunken log2 fold change: -0.139

## RRIRWRPPRLPRPRPRPMPEPRP
  shrunken log2 fold change: -0.236

## RRIRARPPRLPRPRPRPIEYPRP
  shrunken log2 fold change: -0.267

## RRIRDRPPRLPRPRPRPNRQPRP
  shrunken log2 fold change: -0.0252

## RRIRARPPRLPRPRPRPEASPRP
  shrunken log2 fold change: 1.19

## RRIRSRPPRLPRPRPRPLQMPRP
  shrunken log2 fold change: 0.24

## RRIRSRPPRLPRPRPRPERRPRP
  shrunken log2 fold change: 0.23

## RRIRARPPRLPRPRPRPKESPRP
  shrunken log2 fold change: 0.602

## RRIRARPPRLPRPRPRPMGFPRP
  shrunken log2 fold change: -0.154

— the supplement of paper PMC9112550, “Optimization of the antimicrobial peptide Bac7 by deep mutational scanning” (BMC Biology, 2022)
